According to patent US20060210570A1 (Genentech, published 2006):

B1: sHAI-1B(K401A) (other, human, UniProt O43278 36-465, looked up)
chain: GPPPAPPGLPAGADCLNSFTAGVPGFVLDTNASVSNGATFLESPTVRRGWDCVRACCTTQNCNLALVELQPDRGEDAIAACFLINCLYEQNFVCKFAPREGFINYLTREVYRSYRQLRTQGFGGSGIPKAWAGIDLKVQPQEPLVLKDVENTDWRLLRGDTDVRVERKDPNQVELWGLKEGTYLFQLTVTSSDHPEDTANVTVTVLSTKQTEDYCLASNKVGRCRGSFPRWYYDPTEQICKSFVYGGCLGNKNNYLREEECILACRGVQGGPLRGSSGAQATFPQGPSMERRHPVCSGTCQPTQFRCSNGCCIDSFLECDDTPNCPDASDEAACEKYTSGFDELQRIHFPSDKGHCVDLPDTGLCAESIPRWYYNPFSEHCARFTYGGCYGNKNNFEEEQQCLESCRGISKKDVFGLRREIPIPSTGSVE
B2: sHAI-1B(R260A) (other, human, UniProt O43278 36-465, looked up)
chain: GPPPAPPGLPAGADCLNSFTAGVPGFVLDTNASVSNGATFLESPTVRRGWDCVRACCTTQNCNLALVELQPDRGEDAIAACFLINCLYEQNFVCKFAPREGFINYLTREVYRSYRQLRTQGFGGSGIPKAWAGIDLKVQPQEPLVLKDVENTDWRLLRGDTDVRVERKDPNQVELWGLKEGTYLFQLTVTSSDHPEDTANVTVTVLSTKQTEDYCLASNKVGRCAGSFPRWYYDPTEQICKSFVYGGCLGNKNNYLREEECILACRGVQGGPLRGSSGAQATFPQGPSMERRHPVCSGTCQPTQFRCSNGCCIDSFLECDDTPNCPDASDEAACEKYTSGFDELQRIHFPSDKGHCVDLPDTGLCKESIPRWYYNPFSEHCARFTYGGCYGNKNNFEEEQQCLESCRGISKKDVFGLRREIPIPSTGSVE
B3: prostasin (recombinant human, soluble, active two-chain form purified from conditioned medium of CHO cells transfected with full-length prostasin) (enzyme)
chain: not shown
notes: also called purified prostasin; soluble prostasin

Experiments:
[1] = target: B3; assay: cell-based or functional assay
[2] = target: B3; assay: cell-based or functional assay; remark: listed apart in the source
sHAI-1B(R260A) = target: B2; assay: incubation at 37 C, SDS-PAGE and immunoblot with anti-HAI-1B polyclonal antibody
Method: (§1) FIG. 2. […] Prostasin of indicated concentration was incubated with 20 nM wildtype sHAI-1B (A) or mutant sHAI-1B (B) at 37° C. for 0.5 or 2 h. The reactions were stopped by addition of SDS sample buffer with DTT. 30 μl of each sample was boiled or not boiled (as indicated) followed by immunoblotting analysis using anti-HAI-1B polyclonal antibody.
(§2) Prostasin was incubated with sHAI-1B comprising the entire extracellular domain of HAI-1B (Kirchhofer, Peek et al. 2003) at different molar ratios (FIG.2A).

sHAI-1B(K401A) = target: B1; assay: prostasin incubated with 20 nM mutant sHAI-1B, immunoblot (FIG. 2B)
Method: as §1, §2

aprotinin = aprotinin (UniProt P00974 36-93); assay: affinity chromatography of prostasin on immobilised aprotinin

Row | IC50 (nM), inhibition of prostasin amidolytic activity towards S2765 [1] | fold less potent than wildtype sHAI-1B in the prostasin inhibition assay [2] | inhibitory activity of KD2 relative to KD1 in prostasin enzymatic assays [2] | binding result (sHAI-1B(R260A)) | binding result (sHAI-1B(K401A)) | binding result (aprotinin) | Binder
1 | 75.3 nM |  |  |  |  |  | B1
2 | > 1000 nM | ≥ 18 fold | < 6% |  |  |  | B2
3 |  |  |  | no binding | binds | binds | B3
